Source: publication PMC3299833 (Molecular Cell, 2012)
Where two headings read alike, the source gives them in different places.

B1: Recombinant PKM2 mutant R399E (enzyme)
chain: not shown
B2: HA-R399E (HA-tagged PKM2 mutant R399E expressed in SW480 cells) (enzyme)
chain: not shown

Assays:
[1] = target: the molecule itself; test: SEC
[2] = target: the molecule itself; test: SEC; remark: listed apart in the source

Protein | stoichiometry N [1] | stoichiometry N [2]
B1 | 2 | 
B2 |  | 2
